{"source": "paper doi:10.1101/2023.02.23.529712", "target": "recombinant rat arrestin-2 (rat), P29066", "sequence (P29066 whole entry, the tested form may be a part)": "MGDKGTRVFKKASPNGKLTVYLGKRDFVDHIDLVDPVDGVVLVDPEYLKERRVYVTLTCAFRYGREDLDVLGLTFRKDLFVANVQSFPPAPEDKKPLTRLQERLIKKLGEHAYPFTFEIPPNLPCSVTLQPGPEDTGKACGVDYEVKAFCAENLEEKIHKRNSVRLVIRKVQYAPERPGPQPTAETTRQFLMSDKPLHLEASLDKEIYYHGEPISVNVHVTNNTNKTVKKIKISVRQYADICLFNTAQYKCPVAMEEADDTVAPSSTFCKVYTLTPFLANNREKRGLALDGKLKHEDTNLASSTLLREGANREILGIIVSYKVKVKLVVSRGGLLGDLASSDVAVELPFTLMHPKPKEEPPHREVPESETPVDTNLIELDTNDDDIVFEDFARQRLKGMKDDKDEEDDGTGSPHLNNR", "assay": "MST + fluorescence polarisation", "note": "No end group written: not given here.", "data": [{"binder": "GFEPFSQRKLEELKDESSRAWTEEEINE (domain or fragment, not fully specified)", "note": "[phosphomimetic GHSR C-terminus, Q92847 339-366]", "values": [{"measurement": "Kd", "value": 200, "unit": "µM"}]}]}
